# Results published in the DeepSol protein solubility set.
# Assay: soluble on expression in E. coli; label from the status in PepcDB or PDB records
row,Sequence,soluble on expression in E. coli
1,MAPNASCLCVHVRSEEWDLMTFDANPYDSVKKIKEHVRSKTKVPVQDQVLLLGSKILKPRRSLSSYGIDKEKTIHLTLKVVKPSDEELPLFLVESGDEAKRHLLQVRRSSSVAQVKAMIETKTGIIPETQIVTCNGKRLEDGKMMADYGIRKGNLLFLACYCIGG,soluble
2,SLNKIKAFYNLPMAYYRLSNFLKHYIDDNTIIICIGTDRCIGDCLGPMVGTMLKEKFFPLNVYGTISEPIHALNIDKKLYKIKKDHTNSTIIGIDACLGDTENIGEIQVRDYAIHPGKGVGKSLPDVGEVSIVGIVDSCESSELFTNRNIRLNLIFEMSKVIVQTIIHSYYLHKTFSDSIFPDSASTLK,soluble
3,MPSYKLTYFNARGYGEAARILFHLADVPFEDFRMTHGDGTWEKLKEKTPLGQVPVLSVDGFEIPQSAAIIRYLANKFGYAGKTPEEQAWADAIVDQFKDFMGSFREVGKAHAAGKPAEEIAKIMQSDVVPARDAFFVIINGILEKSKSGFLVGDGLTFADIVVVECITTLDKNQLFTPAGEPKLVALREKVYAIPAIKKWVEIRPDTQY,not soluble
4,TEQATTTDELAFTRPYGEQEKQILTAEAVEFLTELVTHFTPQRNKLLAARIQQQQDIDNGTLPDFISETASIRDADWKIRGIPADLEDRRVEITGPVERKMVINALNANVKVFMADFEDSLAPDWNKVIDGQINLRDAVNGTISYTNEAGKIYQLKPNPAVLICRVRGLHLPEKHVTWRGEAIPGSLFDFALYFFHNYQALLAKGSGPYFYLPKTQSWQEAAWWSEVFSYAEDRFNLPRGTIKATLLIETLPAVFQMDEILHALRDHIVGLNCGRWDYIFSYIKTLKNYPDRVLPDRQAVTMDKPFLNAYSRLLIKTCHKRGAFAMGGMAAFIPSKDEEHNNQVLNKVKADKSLEANNGHDGTWIAHPGLADTAMAVFNDILGSRKNQLEVMREQDAPITADQLLAPCDGERTEEGMRANIRVAVQYIEAWISGNGCVPIYGLMEDAATAEISRTSIWQWIHHQKTLSNGKPVTKALFRQMLGEEMKVIASELGEERFSQGRFDDAARLMEQITTSDELIDFLTLPGYRLLA,soluble
5,MRSVKVYEETWPLHTPFVIARGSRSEAHVVVVELEEEDVKGIGECTPYPRYGESDASVMAQIMSIVPQLENGLTREALQKLLPAGAARNAVDSALWDLQARQRQQSLAGLLGVTLAPVFTTAQTVVIGTPEQMAASAAALWEKGATLLKIKLDARLISERMVAIRSAVPEATLIVDANESWRPEGLAARCQLLADLNVAMLEQPLPAQDDAALENFIHPLPICADESCHTRSSLKALTGRYDMINIKLDKTGGLTEALALATEAREQGFGLMLGCMLCTSRAISAALPLMPQVSFADLDGPTWLAVDVEPALRFTTGQLHL,not soluble
6,MVITLSRLYVHPVKSMRGLQLSHAQVSRSGLAFDRVFMITEPDGMFITARQYPKMVMFTPALMADGLYLTAPDGESASIRFNDFLANPAPTEVWGNHFTALIAPEAINSWLSGYFQRDVQLRWVGTELTRRVKPLPEVPLSFADGFPYLLINEASFKDLQQRCPASIKLEQFRPNLVITGTTAFAEDCWQVIRIGDITFDLVKPCSRCVLTTVSVERGQKHPAGEPLRTLQTFRTAENGDVDFGQNMVARNSGIIRVGDEVEVLITKPPRPYGAGAVVESLSAPQDQSKTVSIEYNGIRFNGNNQQILLEQLEQQNIRIPYSCRAGICGSCRVTLLTGDVAALKKSAVGNDGTILCCSCIPKGDISLSGK,not soluble
7,MGSDKIHHHHHHDNDWVDQSRNPDVIAPDAYASFSINIPHASKTRAVSTDPGIAAENTVKSLHVFIYDAESPNTPTVAEFTVAGGTLTQKPAGSSTWMTSQPISTKKTDKYIFAGVNLNAEIVNYITSNGLGAFSYKDFTQEITKLADQTNGFVMFNSAYPTLTPAADLYEKKSEAENNHITISVNRVTAKAAVFQSQSFVVNGGGTMTDLKFGWRNLNKKFYFIQDNRDALIKDYNWANYTAEDFTRGTDAINVYASADVPTSFSYATENAFQYISGTSNVDAATFISVSGVFTPTNIISAKKNPPTVAADFEIIVNPKPVDKTFFVVRTADGVANYFIDGPTAEKFAELCAANTPQMPSINGIYLLSENTYSNGLCYYHIFVNGDAVTPQAPYNIYRNQYFKININSIQAPGNPSDNFDRGEPIKPNSWIGVDIQIIPWEVIEEDHDL,not soluble
8,MAHHHHHHMDSQTPHGDVVDEATMAVLPEHGLIFSEIKQMQLLLCKPKLLPVKSYSLEKLEKMEKKLAREAKEKRDANRAQRQAPLVWTSPDLTAGEGVKTIPAPSPLVTVAPAPPQNVASTPLRDGGATPPSAAPAVASSASSRGAASQETLSFTPVHTEGETCADASMSAPERSPRISPSTDVSSSSPSPSASTTD,soluble
9,MAHHHHHHMGTLEAQTQGPGSMSVSAAPSATSIDRYRRITKLGEGTYGEVYKAIDTVTNETVAIKRIRLEHEEEGVPGTAIREVSLLKELQHRNIIELKSVIHHNHRLHLIFEYAENDLKKYMDKNPDVSMRVIKSFLYQLINGVNFCHSRRCLHRDLKPQNLLLSVSDASETPVLKIGDFGLARAFGIPIRQFTHEIITLWYRPPEILLGSRHYSTSVDIWSIACIWAEMLMKTPLFPGDSEIDQLFKIFEVLGLPDDTTWPGVTALPDWKQSFPKFRGKTLKRVLGALLDDEGLDLLTAMLEMDPVKRISAKNALEHPYFSHNDFDP,soluble
10,MKKSLALLAFATLLPSAWTHADSAYINYRHQYAESTRMHADRVKFGSRLDSGWGFEGELKYKTAGDRQDVAFDNTVGNGHELTTSYQYRLNDKWMLTPSLALESIEKSTAYKMGLKLGYKVNDQLSVSGRYRYDSIKLDRDKVNHDMPDNQMDDQSINRYDVWVNYASKGPWAYEYQFTYFDADYIRYDNGRTDYEQNAAFKYRWDKHWVPFFEVGDIKVDSEDDKRQLRLRVGVQYNFL,not soluble
11,MPQQTQTSAEKRCMVTKRIMLKLPDISAASLIPASIEASPAQVLGPASLAGIFPRGVRVYLTDTGAASQEKLVDAATHLRNLGYEPVPHLAARRIPSRVEFEEQVKRLAGEADVTDVLVVGGGVDRPAGPFASSMDMLSSGIFDRYGIKKIAIAGHPEGSPDFSEETAIAALRLKRDFGERSDAAMRIVTQFGFDPARFIAWAEGLAASGIDLPVHIGVSGPAKITTLLKYAALCGVGNSIAYLKKNALSLTTLARGHSPDSIVGPIERHWQANPQGPIRQIHVFPFGGLQNSADWLVSRGSWQTRDAGRPAPADSMAG,not soluble
12,MSLAKLPVGGIWKARLVLNEMQWSPYIKVATFSADITLDVTDKNNGAIYLPAFGSATPRVDLNLRTQPLSTAPGGEVSGQANIDMCLYDGYNSNSPWLKVALSDLQTVAGRPADVFSLRRDGSSGTAAADRVDYRITLNYNNQPQTVNNGQDITLASVNSTLIRPVVMPGIAFPVICTPTPLTLNVLPFAKLSKAAGHFSGTLRVTLSADALAEGHHHHHH,not soluble
13,MGSDKIHHHHHHMMKLIPRSSDISPGIDGICPGPFPPNGFTVLTDAAYGNGDCFGLYWPIGQEHKLPIVCETYHDEWRIVPAFSSIKKFEEWLEVNDDDPHENGISIEDQDFAANLFRVARKCLSTGRLDDALPLLQRATEQLPEVSEYWLALAIQYRRCKKTEAAAQAALNAYLGNWAFGVPDNKVIHLLSQAADVPNFQDDPVIQCIKEQGLDLSFGGTKENNNYPLMQMCVDTYFAQRKPLQALTLLHNYAWIMSSETTAFQERYDFNIDEWRAKFRQLCLEYFGDSRTQFT,not soluble
14,RSKYNAKKVVIDNIKFDSKAEAAYYQQLKLLKMSGEVVSFDLQPEFVLQESFRKNGKLYRAIKYKADFLVRYSDGHEELIDIKGMLTKEFRIKQKLFELRYMQSIKCLKLKGRNFVEV,not soluble
15,MGSDKIHHHHHHMFEAFGDMSLDLLRAFEVAARLRSFTAAAIELGTIQPAVSQQIKRLEEQLATRLFDRIYRGIELTEAGEILFSHVQAGLQSIDSGLIAITEQQQHEVLQVATDFAFAAYWLMPRLHRFHKLNPDVDVSLVTSERTHSMLRADIDVTVLFGDGRFKQGESRWLFSEEVFPVCSPLLIADRQTPLPNDALRDFPLLHLRGDSINNWFDWSGVFRALDIPQAPAPGQLRFDNYTLLIQAAIGGQGIAIGWKHLVDDLLDQGLLCRPIAGAAISGHGYYVVLPQRKRRVQIVQQFMDWLASEQALSGVSLAGRPLPSIAV,not soluble
16,GPGSMEDYKAKGNDAFKAKRYQEAIDWYTKAIELDPNGEASGALYSNRAGSWQNLNNFEKAAADSEQCIRLRPDWLKGYFRLGVAMESMVKYDEAQKAFQKALQLSPGNEEVMDKLHAINTKVRERNEKTKSQQCKTPEEAKQLGNSFFKDGKYDQAAEFYTRAIELQTEPVKEKAVYYTNRAACHQQTHMYSLMVDDCNAAIEIDPANVKAYLRRGIAYEGMEKWKLALEDYTKAQSISPGVAGASQGILRCQRVLRS,soluble
17,MGSDKIHHHHHHMSYSEKMLAALSNGQIDTAKKHFAWALRKDDDQTLYSLAEELYGLGFLKQAERTYKKLLAKYPDEDDLRTSLADIAIDEDDTDLALDYLQQVKPDSPAYVQALLVEADLYQTQELFEVSEQKLKEAYQLAPDEPVVEFALAEFYFLIRNYGQATRFYLDLIKQGQLEISKVNLVERLGVAYAESGRFEQAVGYLEQIKPAKLTPDSQFELGFTYLQLNEPQKAVDIFDKLREQDNQYASLYPYLAQAQEQLHQLDKALLTLQEGLAVDQYNEQLYLQTARLALKLDDQELAEKYLREGLSIDPDNLTTVLELSNLLVQRERYQDNIDLLDQYLQSNEFDPQFYWNLAISNDRLDHFQAAKDNYEAAYPFFEHNKDFLKPAIYFFREAGMADSAVAALRNYLTIEPDDGEMVAMLEDYEDQGY,not soluble
18,MRNPFERMPTVLTADELIDKAFRRAEKAASSFKPRGNKVKKARLREELRVRTVSNVVRDNLRKVLERTPGLSTLPKFYQELVDVLVDRDTFHKAMAGIDWAIRIIRELEERYVERIRYSNDPNEIAELRRQFYGRVASVLRDIDDRLRYLNKAREVLKDLPVVDLEIPTVVIAGHPNVGKSTLLKALTTAKPEIASYPFTTRGINVGQFEDGYFRYQIIDTPGLLDRPISERNEIEKQAILALRYLGNLIIYIFDPSEHCGFPLEEQIHLFEEVHGEFKDLPFLVVINKIDVADEENIKRLEKFVKEKGLNPIKISALKGTGIDLVKEEIIKTLRPLAEKVAREKIERELRRYRSYL,soluble
19,MAICESGALPSHVGALSYSGGAASSFFGRRNADGLNDKWLALRDAFRAAGGDLLAIEDARSAALDFVIHVNAHRLRHDVPAFVILAESEFIHPPNVDWRMLQQYKGIFTWMPDLVRRGIGTEICLAHPLGAGVVDGYQERPQLLVMIASNKALPVWRPAVDLYRERVRAIRWFEKHAPQAFALYGHDWDKSPRLPTPLGGIVHGVEFVLPWRLQWFPSWKGVIPSKREVLRHARFSLCYENVRGLRGYITEKIFDAFCAGNVPVYWGAEDITDYIPADCFIDRRAFGDYADLYRYLTSMPETRYIQYQQAICDFLVSPAAKRFSSEIFATTIVGKVLDTLGRRDE,not soluble
20,MGSDKIHHHHHHSLDQAKKLYNDGKYAEAKPVFEKLVKQAPSNASYNQWYGVCCFETGDLAGAEKHLKVAVKRRVQDAYRYLGEVYYQTYRFNEAEEMFDEYITLLTKKKQDVEPYQIRMDLANKASRMLDKVENVQIIDSLVVDKDNFLSAYTLSEESGTLTTYQDFFQTNDPGNSSVYMNQKEDKIYYAHSTDGNHNCLFTQSKLIDQWGDEKQLPMNINSDADDGYPFVLSDGVTIYYASKGNSSLGGYDLFVTRYNINSDTYLTPEQLGMPYNSPFNDYMMVIDEAKQLGWFVSDRYQPEGKVCVYLFIPNDNRERVDSEDIELKRARASIASIKDSWKPGSNYEELIHLAHTEIPYGRIEIKKDFTFPIHNDIVYYTLDDIQSPEAKNYYEKVVSIHKQIKELNEKLESLRASYIKGNKAKREQLKPTILDTEEKLNNLLGQPDEWEKKARNAEIVYLRNNHK,not soluble
